Results from the supplement of paper PMC10724198.
± gives the standard deviation of the averaged measurements.

test system: Saccharomyces cerevisiae; assay: protein stability index of tFT-peptide fusion (C-terminal peptide) (PSI (0-1 scale)); higher = more stable (slower turnover); details: genetic background: wild type; temperature: 30 C
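Also: PSI is a weighted mean of sequencing reads over stability bins, variants kept only with over 10 reads, mCherry proximal and sfGFP distal, peptide attached via GGGS linker.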

VGFGARGVPGGG and VGFGVRTGETVV are within error of each other in protein stability index: 0.681 ± 0.019 for the first, 0.685 ± 0.048 for the second.

Going from VGFSAFSDSFFV to VGFVAWFRNVCR, the protein stability index falls from 0.7224 ± 0.0046 to 0.653 ± 0.044.

First: VGFYRADSLLIF
Second: VGGAAVGAGGGV
The protein stability index of the first is lower: 0.5763 ± 0.0049 for the first, 0.691 ± 0.054 for the second.

Going from VGGAWRMGRGGG to VGGEGSAGLQCR, the protein stability index rises from 0.658 ± 0.018 to 0.6956 ± 0.0037.

VGGFCSWVVAWF and VGGFRVLCVGLG are within error of each other in protein stability index: 0.717 ± 0.1 for the first, 0.613 ± 0.04 for the second.

VGGGGEWCLVRL and VGGGGRARRRGS are within error of each other in protein stability index: 0.685 ± 0.013 for the first, 0.701 ± 0.013 for the second.

VGGVGGLWGGAV and VGGVRGAGCVRG are within error of each other in protein stability index: 0.69 ± 0.064 for the first, 0.705 ± 0.024 for the second.

VGGVWGLGVRPR and VGGWGGVSLGGR are within error of each other in protein stability index: 0.693 ± 0.029 for the first, 0.721 ± 0.1 for the second.

Compared with VGIFQLCCALGG, VGILTSVQKHSG is higher in protein stability index: 0.47 ± 0.085 for the first, 0.723 ± 0.16 for the second.

VGLGGGVRLGRL and VGLGRPAAAWRR are within error of each other in protein stability index: 0.786 ± 0.09 for the first, 0.71 ± 0.00097 for the second.

VGLLCVGAGFWG and VGLLGCGMNGGR are within error of each other in protein stability index: 0.652 ± 0.014 for the first, 0.701 ± 0.068 for the second.

Compared with VGLLLAGKIVTY, VGLVVVRTMGPC is higher in protein stability index: 0.604 ± 0.033 for the first, 0.6463 ± 0.00079 for the second.

VGNGGVWSVGRG and VGRAPDFLYGVW are within error of each other in protein stability index: 0.685 ± 0.038 for the first, 0.691 ± 0.044 for the second.

VGREVSYGRGGD and VGRGCVLGVWEG are within error of each other in protein stability index: 0.655 ± 0.031 for the first, 0.715 ± 0.035 for the second.

Compared with VGRGPSAPVSCV, VGRTNHSRVFRT is lower in protein stability index: 0.726 ± 0.061 for the first, 0.627 ± 0.035 for the second.

VGRWGGVSLGGR and VGSLGVGTFRRD are within error of each other in protein stability index: 0.715 ± 0.09 for the first, 0.692 ± 0.011 for the second.

First: VGSLRAGYFLRL
Second: VGSSLRGWSSRT
The protein stability index of the first is lower: 0.637 ± 0.043 for the first, 0.804 ± 0.045 for the second.

Going from VGVAGGRGEEEL to VGVDCGVLWCLF, the protein stability index falls from 0.735 ± 0.019 to 0.637 ± 0.015.

VGVFDGAVFSWC and VGVGGGRWCGRG are within error of each other in protein stability index: 0.726 ± 0.12 for the first, 0.69 ± 0.059 for the second.

VGVGGVGGFFGC and VGVTLSSFSRLP are within error of each other in protein stability index: 0.79 ± 0.037 for the first, 0.693 ± 0.085 for the second.

Going from VGVVRAGWGGAV to VGVVVGLVRLLG, the protein stability index falls from 0.65 ± 0.059 to 0.537 ± 0.039.

VGVWTGWDVDCH and VGWGGGESLGWV are within error of each other in protein stability index: 0.742 ± 0.076 for the first, 0.694 ± 0.13 for the second.

VGYWGMGFWFSG and VHCNLKLDASNF are within error of each other in protein stability index: 0.65 ± 0.03 for the first, 0.719 ± 0.058 for the second.

VHESARAAGSDW and VHGAQICCIPWY are within error of each other in protein stability index: 0.647 ± 0.062 for the first, 0.699 ± 0.063 for the second.

VHGYVRLIWPTI and VHHFCSPPLPPP are within error of each other in protein stability index: 0.696 ± 0.053 for the first, 0.732 ± 0.0095 for the second.

VHHTPFFSAPHV and VHSPLVHILSCS are within error of each other in protein stability index: 0.647 ± 0.09 for the first, 0.582 ± 0.012 for the second.

VHTCVSYTNCMD and VICRGGHVLLES are within error of each other in protein stability index: 0.703 ± 0.026 for the first, 0.72 ± 0.098 for the second.

First: VIDHALWCYVGG
Second: VIFGCVLSQLDT
The protein stability index of the first is lower: 0.605 ± 0.0087 for the first, 0.705 ± 0.023 for the second.

Going from VIILRWCRVDGF to VIVLVQDVALQL, the protein stability index rises from 0.565 ± 0.031 to 0.7 ± 0.065.

VKGCKCGRIASY and VKPIFTEYGRYK are within error of each other in protein stability index: 0.669 ± 0.063 for the first, 0.626 ± 0.002 for the second.

VKQGCISSNCKL and VKRPGVGRSSTA are within error of each other in protein stability index: 0.762 ± 0.16 for the first, 0.731 ± 0.051 for the second.

Compared with VKTNPEGDGKQE, VKVWRTILRLLD is lower in protein stability index: 0.671 ± 0.021 for the first, 0.535 ± 0.0097 for the second.

Compared with VLACVAQAACCR, VLAGTGGCASVW is higher in protein stability index: 0.556 ± 0.054 for the first, 0.739 ± 0.022 for the second.

First: VLAGVVGQARWW
Second: VLALLPLFFYFH
The protein stability index of the first is higher: 0.731 ± 0.015 for the first, 0.5041 ± 0.0041 for the second.

VLFCFAHSASFL and VLGCWEAPFVRC are within error of each other in protein stability index: 0.536 ± 0.066 for the first, 0.62 ± 0.1 for the second.

VLGGVWAWWVGF and VLGLLFLLCVFM are within error of each other in protein stability index: 0.663 ± 0.022 for the first, 0.6436 ± 0.0038 for the second.

VLGVTVRFRGIS and VLLRSTRRPLPC are within error of each other in protein stability index: 0.642 ± 0.057 for the first, 0.657 ± 0.036 for the second.

VLMVIPRAQVLL and VLPPTPLTPVLP are within error of each other in protein stability index: 0.697 ± 0.085 for the first, 0.676 ± 0.055 for the second.

Going from VLRARQGVREPP to VLRGSFPWLSPV, the protein stability index rises from 0.526 ± 0.01 to 0.7084 ± 0.0048.

VLSGFICTILIP and VLSLLVLLLSLP are within error of each other in protein stability index: 0.596 ± 0.038 for the first, 0.614 ± 0.017 for the second.

VLSSARKEVIIG and VLTGFTGSAIIG are within error of each other in protein stability index: 0.643 ± 0.03 for the first, 0.682 ± 0.03 for the second.

VLTVVRVGVGKQ and VLVLVARPLWRI are within error of each other in protein stability index: 0.676 ± 0.051 for the first, 0.646 ± 0.0094 for the second.

Going from VLVRRVFRRRSR to VLVRYSAGTGGT, the protein stability index falls from 0.786 ± 0.11 to 0.605 ± 0.013.

First: VMKILQVGDVYN
Second: VMLSYCHNLTKI
The protein stability index of the first is higher: 0.752 ± 0.021 for the first, 0.646 ± 0.074 for the second.

Going from VMLWAGLFGSSV to VMTRVIYRGVGR, the protein stability index rises from 0.634 ± 0.018 to 0.6643 ± 0.00051.

Going from VNKRRCIGERDG to VNMMYEIWPLGN, the protein stability index falls from 0.6949 ± 0.0029 to 0.624 ± 0.038.

VNRYSKETDAVF and VNYRVWRKRGGR are within error of each other in protein stability index: 0.6719 ± 0.0043 for the first, 0.644 ± 0.057 for the second.

Compared with VPEMFSSGIKGG, VPLPLHLPPPLP is higher in protein stability index: 0.653 ± 0.072 for the first, 0.863 ± 0.12 for the second.

Compared with VPMVFSIYFGVS, VPPPLASPPVTP is higher in protein stability index: 0.563 ± 0.012 for the first, 0.698 ± 0.055 for the second.

VPPPVCAVPPPL and VPPSKQRSRIKD are within error of each other in protein stability index: 0.684 ± 0.036 for the first, 0.675 ± 0.028 for the second.

Going from VPRGPRFHIILS to VPRLPPSPPPLP, the protein stability index rises from 0.594 ± 0.035 to 0.779 ± 0.076.

Going from VPSCWVSFPPSP to VPSPPCPPHLPI, the protein stability index falls from 0.732 ± 0.04 to 0.655 ± 0.012.

Going from VPVALWEAPAVH to VPVIGRSCPFLP, the protein stability index rises from 0.601 ± 0.013 to 0.6581 ± 0.0013.

First: VPYFRSMSSLSI
Second: VQKITRLVDKVV
The protein stability index of the first is lower: 0.6347 ± 0.0039 for the first, 0.813 ± 0.065 for the second.

VQNPVTTPQEQF and VQTYVRARVDRL are within error of each other in protein stability index: 0.684 ± 0.043 for the first, 0.711 ± 0.024 for the second.

VRAGFRAWGVSE and VRAHARPTKGKP are within error of each other in protein stability index: 0.572 ± 0.2 for the first, 0.682 ± 0.059 for the second.

First: VRATNLSSVGIF
Second: VREFRRAVFVGS
The protein stability index of the first is higher: 0.619 ± 0.011 for the first, 0.544 ± 0.02 for the second.

Going from VREGTKDGGSRV to VRESLGANACSR, the protein stability index rises from 0.544 ± 0.042 to 0.69 ± 0.058.

VRFARSGPAHVC and VRFKDFDDLGSL are within error of each other in protein stability index: 0.6607 ± 0.003 for the first, 0.704 ± 0.067 for the second.

VRGRGRSWRRVK and VRGRLGGGVGRA are within error of each other in protein stability index: 0.758 ± 0.18 for the first, 0.686 ± 0.079 for the second.

VRGVGGLWGGAV and VRHGERGGGLGD are within error of each other in protein stability index: 0.785 ± 0.17 for the first, 0.782 ± 0.06 for the second.

VRHSCRTTTPPS and VRNKGVAKDHCP are within error of each other in protein stability index: 0.708 ± 0.009 for the first, 0.661 ± 0.064 for the second.

VRNPLRSFSGDA and VRNVVYWEFVVE are within error of each other in protein stability index: 0.64 ± 0.049 for the first, 0.585 ± 0.063 for the second.

First: VRPPPPPRSSPL
Second: VRPQLGNHRILV
The protein stability index of the first is higher: 0.742 ± 0.055 for the first, 0.609 ± 0.0067 for the second.

VRQGERGGGLGD and VRRARATLYSWL are within error of each other in protein stability index: 0.747 ± 0.038 for the first, 0.693 ± 0.052 for the second.

VRRETGPPRAPT and VRRVVDESKTRD are within error of each other in protein stability index: 0.6717 ± 0.0019 for the first, 0.659 ± 0.038 for the second.

Compared with VRSGKGKNRWNK, VRSLFSFRLRGS is lower in protein stability index: 0.719 ± 0.024 for the first, 0.633 ± 0.056 for the second.

VRVCGPSCFRPG and VRWLLTSHARLT are within error of each other in protein stability index: 0.628 ± 0.05 for the first, 0.484 ± 0.12 for the second.

VRWSRMGCNWGG and VSAPTHVSRVTQ are within error of each other in protein stability index: 0.585 ± 0.093 for the first, 0.649 ± 0.0088 for the second.

First: VSARWSTSLCLS
Second: VSDGGCIFHRRT
The protein stability index of the first is lower: 0.533 ± 0.015 for the first, 0.704 ± 0.055 for the second.

VSEGFVLGGSCG and VSGPTPAPLSSL are within error of each other in protein stability index: 0.663 ± 0.0074 for the first, 0.695 ± 0.028 for the second.

VSGSSAIFLLWC and VSHKETNKIKPN are within error of each other in protein stability index: 0.706 ± 0.1 for the first, 0.701 ± 0.097 for the second.

Going from VSIAYARHGDSV to VSKYNGIKRRNG, the protein stability index falls from 0.693 ± 0.028 to 0.6 ± 0.0085.

VSLCYGGGFWGG and VSLVLESFFGRV are within error of each other in protein stability index: 0.722 ± 0.014 for the first, 0.719 ± 0.014 for the second.

Compared with VSPFSILLPVPL, VSPLFQDFSIIN is higher in protein stability index: 0.608 ± 0.017 for the first, 0.717 ± 0.06 for the second.

VSPTGRRGYGRS and VSRGESEVKAGG are within error of each other in protein stability index: 0.66754 ± 0.00015 for the first, 0.673 ± 0.1 for the second.

Going from VSRGRVKETGEE to VSRKEQYPEAQE, the protein stability index falls from 0.713 ± 0.038 to 0.625 ± 0.033.

VSSFALDVGFHF and VSSFGHTFCGWI are within error of each other in protein stability index: 0.638 ± 0.068 for the first, 0.618 ± 0.018 for the second.

VSSPLLFCSIFL and VSSTLVARTVWC are within error of each other in protein stability index: 0.675 ± 0.026 for the first, 0.69 ± 0.035 for the second.

VTGGGVGHWGWW and VTGSGVGGSPEC are within error of each other in protein stability index: 0.761 ± 0.052 for the first, 0.683 ± 0.042 for the second.
